Measured values published in a protein production outcome set (Wang et al. 2014).

Assay: label from the status in PepcDB records

Sequence | protein production
MIVAFENNVVCSDEKVRDYLLAHHADLKEDQDEDALCLVRLHKEEDIDGTDRVDLAGWREISRELYWTGEQMECNYSIIRFSRKTTSLQMSVVLSTCNQLEWLEKVLWGYEAQDTKNFELIIADDGSRKETYDMLQRITPQLSFQVKHVWHEDKGFRKCDILNKGILAAQADYLLFSDGDCIPRKDFVSTHLCLRRKGRFLSGGYHKLSMDLSKDITKDDILSGRCFDLQWMRGKGMPASFKNNKLTATGFKRWALNTFTPTKASWNGHNASGWLSDILAVNGFDERMQYGGQDREFGERLENYGIHGMQIRYSTVCLHLDHARGYKTKDSIQKNRNIRKHTRGAKVQWASLGIVKDELRGQSVKVNSYYDRYTREEEKLTSYKEKGGFYRHIYSLPCRWRRAKYHDKVVRAYQQDTDAPALSNHSGVIVSLTTFPPRISQLHLMLKSILWQTCPPEKIIVWLSEQEFPGRLNDLPEELKRLMAKGIAFRFVSENFRSHKKYHYVFREYPDSKVITVDDDLIYPRNTVERLLSLSYQYPDTVCGNVIRKIHMDGNSFSVYRKWTKVFTMPVNSSLQNVAIGCGGIYYPPHWYGEELFDWKIISEHCPSADDLWLKANELKRRVKVTGGGEFYPRPIELPQTQNNSLQKKNNGKTNLNDKQWKSLNELWKLDELYCINGK | failed
MDTGPDQSYFSGNHWFVFSVYLLTFLVGLPLNLLALVVFVGKLRCRPVAVDVLLLNLTASDLLLLLFLPFRMVEAANGMHWPLPFILCPLSGFIFFTTIYLTALFLAAVSIERFLSVAHPLWYKTRPRLGQAGLVSVACWLLASAHCSVVYVIEFSGDISHSQGTNGTCYLEFWKDQLAILLPVRLEMAVVLFVVPLIITSYCYSRLVWILGRGGSHRRQRRVAGLVAATLLNFLVCFGPYNVSHVVGYICGESPVWRIYVTLLSTLNSCVDPFVYYFSSSGFQADFHELLRRLCGLWGQWQQESSMELKEQKGGEEQRADRPAERKTSEHSQGCGTGGQVACAEN | failed
MGCCYSLSSTVDPVQDHTTDASSEPRNGGGEDPPLTKFSFSALKTATNHFSPENIVSDQTSDVVFKGRLQNGGFVAIKRFNNMAWSDPKLFLEEAQRVGKLRHKRLVNLIGYCCDGDKRFLVADFMANDTLAKRLFQRKYQTMDWSIRLRVAYFVAEALDYCNTAGFASYNNLSAYKVLFDEDGDACLSCFGLMKEINNDQITTGSVNPENVIYRFGTVLVNLLSGKQIPPSHAPEMIHRKNVFKLMDPYLKGKFSIDEANVVYKLASQCLKYEGQESPNTKEIVATLETLQTRTEAPSYEVVEMTNQEKDASSSSNLSPLGEACLRMDLASIHSILVLAGYDDDKDIIELSFEEWIQEVKELQDVRRNGDRAFVEQDFKTAIACYSQFVEERSLVYPSVYARRSLSYLFCDEPEKALLDGMHAQGVFPDWPTAFYLQSVALAKLDMNTDSADTLKEAALLEVKK | failed
MQLSWKDIPTVAPANDLLDIVLNRTQRKTPTVIRPGFKITRIRAFYMRKVKYTGEGFVEKFEDILKGFPNINDVHPFHRDLMDTLYEKNHYKISLAAISRAKSLVEQVARDYVRLLKFGQSLFQCKQLKRAALGRMATIVKKLRDPLAYLEQVRQHIGRLPSIDPNTRTLLICGYPNVGKSSFLRCITKSDVDVQPYAFTTKSLYVGHFDYKYLRFQAIDTPGILDRPTEEMNNIEMQSIYAIAHLRSCVLYFMDLSEQCGFTIEAQVKLFHSIKPLFANKSVMVVINKTDIIRPEDLDEERAQLLESVKEVPGVEIMTSSCQLEENVMEVRNKACEKLLASRIENKLKSQSRINNVLNKIHVAQPQARDDVKRTPFIPESVKNLKKYDPEDPNRRKLARDIEAENGGAGVFNVNLKDKYLLEDDEWKNDIMPEILDGKNVYDFLDPEIAAKLQALEEEEEKLENEGFYNSDDEEEIYDGFEASEVDDIKEKAAWIRNRQKTMIAEARNRKSLKNKAIMPRSKLTKSFGKMEEHMSTLGHDMSALQDKQNRAARKNRYVERGSDVVFGDQDALTASTENGVKLRQTDRLLDGVADGSMRSKADRMAKMERRERNRHAKQGESDRHNAVSLSKHLFSGKRGVGKTDFR | failed
MALVPVYCLCRQPYNVNHFMIECGLCQDWFHGSCVGIEEENAVDIDIYHCPDCEAVFGPSIMKNWH | not failed
MIFRLGDFRFPDDPARLYPDTPDRPWVLEIGFGDGRFWPHYARTFPEPPNYLGVEISGVSLLKAHRRLKDAGLTNAVLTKLPAEVLVAQVIPHGSLDAIIVNFPDPWPKAGHEDHRLLRVPFFQVAASRLKPGGAALLTTDHDEYFEFACAQAEASGVMRVERVGPPPAALETKYAQKWRDLGLGVNHARFVPTRHDPVPNGTFAPYSEEDPAVPHAVLTLPADFSPQHFDKLTVRGKTWTVVLLDLYATLRRGGWVALAHVVEGDLTQEVLVGITEREDGTHLVRLAKFGGPIITPGVKAAVGAVTEWLEGQGAVVKHRGY | failed
MTNLGTAKNFWDATLYQDKHSFVWQYGEDLLQLLNPQPGEFILDLGCGTGQLTEKIAQSGAEVLGTDNAATMIEKARQNYPHLHFDVADARNFRVDKPLDAVFSNAMLHWVKEPEAAIASIHQALKSGGRFVAEFGGKGNIKYILEALYNALETLGIHNPQALNPWYFPSIGEYVNILEKQGFDVTYAALFNRPTTLAEGEFGMANWIQMFASAFLVGLTPDQQVQLIRKVEATLQDKLYHQESWTADYRRIRIVSIKAQ | not failed
MLLKILVKLIILDSSCSFLERFKLIIDCYTNKDIPDIDRQLPIWMLWRIWKSRNLSVYQHKSSTWREDFIKTVNDATEWALVWTIDSTTNIQTRQVQSRTHHSAWTRPKEDFVKCNFDCKFSKNNNVSQAGRSKGQHCSMSMEAELQALVMAMQHVWSKGYKKVIFEGDNLRLSSFLRKIKPTSKFTTGSEKIIIRKKGLAMLNSIGQEEKTTK | failed
MKEKLWTTTFVVNMLLNFIFYLVFYLPTVVIGTMAMERYHASASIAGILSGIFIVGGFIARLWAGNNMKRLGAKKLLYIGTLIYFLLTFAYFFVHSVVLLLILRLVHGLGFGIAATASGTLAGAIVPSSRRGEGIGYYALSVTLSSAVGPFLSMFLYRTSGFYSLIWLSALLLFIALVGIFFIHVEKTTDSSNSVDNKVHKKFAWSNYFEKEALPISLIAFLIGISYSSILSFMDAYARNIHLSEAASFFFLVYAITVLLSRPITGRVFDGFGDNFVMYPTYLFFALGLLLIGFAHSGWMLLLAAIFIGLGYGSFSPFGQAIAIRNSEAHRLGITTSTFFGFMDMGVGFGPFILGMFMPLLGYRNLYFASAILALLIAVIYHFVHGRHAKREN | failed
MGEVFQKEAYAQELIDYYNQSTNDVLKRTASISENEKPRVLFLVYDQRKNSYWTPGGEFYQNNLITMAGGKTVSSDLPTGKAQINVEQAASWNPDVIITSAHTMEYPSTKVKEDVLTDEGWKEINAVKSGNVYAMPFDGESWDTLGSKYVLGLYWTAKTLEHHHHHH | not failed
MSERVSEEPGLDKGDRAEECELDDPELKAIRMRVREMEEEAERLKGLSGQDKSIGVSTRPCMQTTHSKMTAGAYTEGPPQPLSAEEKKEIDKRSVYVGNVDYGSTAQDLEAHFSSCGSINRITILCDKFSGHPKGYAYIEFAERNSVDAAVAMDETVFRGRTIKVLPKRTNMPGISSTDRGGFRGRPRGNRGNYQRGQRPRGRPFRGRGRPGPLNNPY | not failed
MDPLKRVENELKKCVKCGACRAHCPAFATFGKEPAVARGKVALAQHLLKGDIELDDATYAAMSKCLLCGSCVEKCPNDVPTDEIVVVAREALSGQRGLTTFHAAVGRVIRNRSLMKFGAAAARILGPLFFRKVPETSGLRLRFPLPFLGGKRHIPSIAKKPFLDRHPEVIPGEPGKPRIVYFVGCMTNFCYPQVGEAALALFRHLGCTVIIPKNQQCCGLPGMSGGDLDTVRGLAEKNLAELERYEADYIMTACATCGGALHKFYPNLVGKRHPELAARLKAIAEKTVDAAQLLQKLGLNPEETGAGSDIRVTYHDPCHLRTRAITRQPRELLQGTPGVELAEMEGADKCCGLGGTFNVYHYESSLAINKMKSAAIINTGADAVVTGCPGCMMQLSDGLKQQRNRTRVLHTLEILARSIRP | failed
MEDFWVQYGDEMLPVIGDFPRKGDYLPSFMLVDDQKHDAALESFSHTPKLIVTLLSVDEDEHAGLLLLRETRRFLDSWPHLKLIVITVDSPSSLARARHEHGLPNIALLSTLRGRDFHKRYGVLITEYPLSGYTSPAIILADAANVVHYSERLANTRDFFDFDAIEKLLQEGEQQAMAAEREAAEARQEQDAEREKGTERLLEKAKLIQDQLNRNGDPGR | not failed
MTSLSQFEPLFLEFMQQEMQVDAAHDIEHVKRVVKTAKQLCDEENADIAIVLPAAYLHDCFTYPKDHPNRKQSSAIAAKKAIAYLESIQYPQHYHDAIAHAIEAHSFSANIRPNTLEAQIVQDADRLDALGAIGVTRCIQVSTHFNAQLYNDNDMFAKERELNDKQFTVDHFQTKLFKIADTMNTESAKLEANKRKAFMQTYLKQLHDEVTALEHHHHHH | not failed
MKGYGEMAKNNPTRITAEPGKQEIIITREFDAPRELVFKAFTDPDLYTQWIGPRGFTTALKIFEPKNGGSWQYIQKDPEGNEYAFHGVNHDVTEPERIISTFEFEGLPEKGHVILDTARFEALPGDRTKLTSHSVFQTIEDRDGMLQSGMEEGINDSYERLDELLEKMKKLEHHHHHH | not failed
MHLLQAVSYRYLILAVIGLPEKYRKPQALACHHRRTAMNRLSAFALAAAIGIAAAPVAQAGELWRATGLEQPESALFDAANNRIIVSNIVGNPGEADGNGYLSVLSLDGKTITQHWTDGMDAPKGMAISGGKLYVADITKVRVVDLASGKLIASIVVPNAVFLNDMTSDHTGKVYVSDMLADTIYRIDGDRPELFVRDALLASPNGVFADGDRLIVASWGKGIKPDFSTAEPGGLLAVDLASKAVSPLPGAQKFADLDGVIAIGDTIYATAYMTGTLYRYKAGGAPEAVAHFKPGSADIGTDGKSILYVPLMNEGEVAALKLD | failed
MTKKIVLAGGTGFIGQYLQQRFEENGDEVVIISRRAPHVSWDDSEAVREALEGADMLVNLAGKSVNCRYNEQNKKAILQSRIDTTNILGEAVLACERPPKLWLNSSTATIYRHAEDRAMTEANGELGSGFSENVAKAWEEEFFSFQLPNTRQAALRISIVLGGDGGALTPYRYLTKFGLGGKQGSGKQMVSWIHVEDVFRVIRFIEEQEALEGVINCTSPQPVSNKVLTTAIRRAMNVKVGLPATAWMLEIGTFLLRTESELILKSRWVLPERLLQAGFTFQYETIDDALSEILVQSKSASHLLEHHHHHH | failed
MVYVGTSGFSFEDWKGVVYPEHLKPSQFLKYYWAVLGFRIVELNFTYYTQPSWRSFVQMLRKTPPDFYFTVKTPGSVTHVLWKEGKDPKEDMENFTRQIEPLIEEQRLKMTLAQFPFSFKFSRKNVEYLEKLRESYPYELAVEFRHYSWDREETYEFLRNHGITFVVVDEPKLPGLFPYRPITTTDYAYFRFHGRNERWFEAEGEERYDYLYSEEELKTLFEDVVELSRRVKETYVFFNNCYKGQAAINALQFKKMLEERV | not failed
EQLTLRHGTRADISEIAPLLARNAADPCELVDLEHALDLLTHESSHFLAVVRNARGKIIAAMQLTIVPEFSRGGALHLHIEGPFIIPEYRTTDLDKKLRAWAVEHGRARGVKVEEVVG | failed
MKTLTTPAPTKSASFREGVFDSLPIVIGYMPVAFAFGMNAVKLGFTPLEGIFLSCIIYAGASQFVITALLSAGMSIWVAALTVMAMDIRHVLYGPALRHRIVQQLPTRKTALWAFGLTDEVFAAAATRLAKDNRRWSENWMIGVSLLAWLSWVLGTVIGAVFGNGPLDNYPAVEAALSFMLPALFLSFLLASFKRKQSLVVACALGGALLGLLLSSIPAAILLGILSGCLASLVNSATPQVNA | failed
